Measurements reported in article PMC4341239, “High yield purification of full-length functional hERG K^+ channels produced in Saccharomyces cerevisiae” (Microbial Cell Factories, 2015).

Molecular target: the molecule itself
Assay: SEC; fluorescence size exclusion chromatography (FSEC) on Superose 6 10/300 GL; crude membranes solubilized in FC-12 with cholesteryl-hemisuccinate, with 1 uM Astemizole; FSEC buffer 20 mM TRIS-HCl, 0.15 M NaCl, 0.03% DDM; mass by MW standards, amount of detergent in the complex unknown

B1: hERG-TEV-GFP-His 8 fusion protein (full-length hERG alpha-subunit, Kv11.1) (natural protein, human, UniProt Q12809 1-1159, looked up)
chain: MPVRRGHVAPQNTFLDTIIRKFEGQSRKFIIANARVENCAVIYCNDGFCELCGYSRAEVMQRPCTCDFLHGPRTQRRAAAQIAQALLGAEERKVEIAFYRKDGSCFLCLVDVVPVKNEDGAVIMFILNFEVVMEKDMVGSPAHDTNHRGPPTSWLAPGRAKTFRLKLPALLALTARESSVRSGGAGGAGAPGAVVVDVDLTPAAPSSESLALDEVTAMDNHVAGLGPAEERRALVGPGSPPRSAPGQLPSPRAHSLNPDASGSSCSLARTRSRESCASVRRASSADDIEAMRAGVLPPPPRHASTGAMHPLRSGLLNSTSDSDLVRYRTISKIPQITLNFVDLKGDPFLASPTSDREIIAPKIKERTHNVTEKVTQVLSLGADVLPEYKLQAPRIHRWTILHYSPFKAVWDWLILLLVIYTAVFTPYSAAFLLKETEEGPPATECGYACQPLAVVDLIVDIMFIVDILINFRTTYVNANEEVVSHPGRIAVHYFKGWFLIDMVAAIPFDLLIFGSGSEELIGLLKTARLLRLVRVARKLDRYSEYGAAVLFLLMCTFALIAHWLACIWYAIGNMEQPHMDSRIGWLHNLGDQIGKPYNSSGLGGPSIKDKYVTALYFTFSSLTSVGFGNVSPNTNSEKIFSICVMLIGSLMYASIFGNVSAIIQRLYSGTARYHTQMLRVREFIRFHQIPNPLRQRLEEYFQHAWSYTNGIDMNAVLKGFPECLQADICLHLNRSLLQHCKPFRGATKGCLRALAMKFKTTHAPPGDTLVHAGDLLTALYFISRGSIEILRGDVVVAILGKNDIFGEPLNLYARPGKSNGDVRALTYCDLHKIHRDDLLEVLDMYPEFSDHFWSSLEITFNLRDTNMIPGSPGSTELEGGFSRQRKRKLSFRRRTDKDTEQPGEVSALGPGRAGAGPSSRGRPGGPWGESPSSGPSSPESSEDEGPGRSSSPLRLVPFSSPRPPGEPPGGEPLMEDCEKSSDTCNPLSGAFSGVSNIFSFWGDSRGRQYQELPRCPAPTPSLLNIPLSSPGRRPRGDVESRLDALQRQLNRLETRLSADMATVLQLLQRQMTLVPPAYSAVTTPGPGPTSTSPLLPVSPLPTLTLDSLSQVSQFMACEELPPGAPELPQEGPTRRLSLPGQLGALTSQPLHRHGSDPGS
modifications: N-glycosylated in S. cerevisiae
notes: the fusion is 156 kDa; also called hERG-GFP-His 8; hERG-GFP; source: S. cerevisiae strain PAP1500, induced at 15°C; crude membranes solubilized in FC-12 with cholesteryl-hemisuccinate; not shown: GFP (yEGFP, after a TEV cleavage site), C-terminal, kept; His8, C-terminal, kept
stoichiometry N: 4
